Where no end group is shown, it is not given here. The star is where a group is joined. Biotin = O=C1N[C@H]2[C@H](CS[C@H]2CCCCC(=O)*)N1
B1: biotinylated Qp (peptide)
peptide: Biotin-DTENIRFVFAAVKDTILQLNLKEYNLV
notes: Gαq C-terminal α5 peptide (Qp), last 27 residues of Gαq; also called bioQp; bioQP; source: synthetic peptide (GenScript); not shown: biotin, N-terminal, kept

What was measured:
β2-AR-mCerulean [1] = target: T1, β2-AR-mCerulean (human, UniProt P07550 1-413); experiment: pull-down; binding step of the binding-and-release assay: 30 μM biotinylated Gα peptide and 100 μM isoproterenol mixed 5 min with native membranes (10 nM β2-mCer) in 20 mM HEPES, 100 mM NaCl, 45 mM KCl, 5 mM MgCl2, pH 7.4; complex depleted with streptavidin-coated magnetic beads; unbound receptor from mCer fluorescence of the supernatant; KD estimated from a single point; conditions: one partner purified
T1 construct: human β2-adrenergic receptor, cDNA from Open Biosystems; Constructed 'in a similar manner' to the SPASM sensors; m1 stands for it there; also called β2-mCer; β2-mCerulean; source: HEK293T, transiently transfected, native membranes

β2-AR-mCerulean [2] = target: T1, β2-AR-mCerulean; experiment: cell-based or functional assay

| Binder | Kd (β2-AR-mCerulean [1]) [µM] | activation of endogenous Gs (BODIPY-FL-GTPγS) after fenoterol in native membranes with β2-AR-mCherry, with 30 μM Qp against no peptide (β2-AR-mCerulean [2]) [fold] |
| --- | --- | --- |
| Biotin-DTENIRRVFNDCRDIIQRMHLRQYELL [biotinylated Sp] | ~30 |  |
| B1 | > 200 |  |
| DTENIRFVFAAVKDTILQLNLKEYNLV [Qp (Gαq C terminus peptide)] |  | ~7 |

Source: article PMC6811539, “Minute-scale persistence of a GPCR conformation state triggered by non-cognate G protein interactions primes signaling” (Nature Communications, 2019)
